Measurements taken from publication doi:10.1101/2021.01.18.427180 (bioRxiv, 2021).

Assays:
recombinant human TLR2 = recombinant human TLR2 (human, UniProt O60603); test: flow cytometry of receptor-conjugated beads
recombinant human CD14 = target: T1, recombinant human CD14 (human, UniProt P08571 20-345); test: flow cytometry of receptor-conjugated beads
T1 sequence: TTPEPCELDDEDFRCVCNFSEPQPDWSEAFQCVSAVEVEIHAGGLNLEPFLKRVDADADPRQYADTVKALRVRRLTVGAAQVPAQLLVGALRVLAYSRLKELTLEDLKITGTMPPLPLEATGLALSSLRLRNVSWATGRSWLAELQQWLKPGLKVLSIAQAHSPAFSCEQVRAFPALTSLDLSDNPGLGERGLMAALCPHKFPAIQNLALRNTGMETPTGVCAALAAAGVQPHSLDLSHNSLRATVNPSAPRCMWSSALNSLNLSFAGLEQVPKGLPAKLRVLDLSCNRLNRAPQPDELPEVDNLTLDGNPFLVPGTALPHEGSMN

recombinant human TLR2, sequence (O60603 21-588): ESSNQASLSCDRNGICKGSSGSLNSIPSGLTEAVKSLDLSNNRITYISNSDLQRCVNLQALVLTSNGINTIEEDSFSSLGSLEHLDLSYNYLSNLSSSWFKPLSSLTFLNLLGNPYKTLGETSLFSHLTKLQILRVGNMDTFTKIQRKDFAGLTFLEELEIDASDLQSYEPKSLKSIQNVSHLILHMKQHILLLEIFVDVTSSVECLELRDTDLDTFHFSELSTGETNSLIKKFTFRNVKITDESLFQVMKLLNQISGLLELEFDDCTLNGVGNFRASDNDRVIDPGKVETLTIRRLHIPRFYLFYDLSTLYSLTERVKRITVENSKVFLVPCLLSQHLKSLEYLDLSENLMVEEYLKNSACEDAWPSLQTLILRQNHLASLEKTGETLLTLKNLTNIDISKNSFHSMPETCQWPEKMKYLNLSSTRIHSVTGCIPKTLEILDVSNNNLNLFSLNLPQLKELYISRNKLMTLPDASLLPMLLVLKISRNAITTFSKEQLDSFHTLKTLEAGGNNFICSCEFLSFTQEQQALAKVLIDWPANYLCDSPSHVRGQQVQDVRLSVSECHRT

| Binder | binding result (recombinant human TLR2) | binding result (recombinant human CD14) |
| --- | --- | --- |
| GGLSSVGGGS [KAMP-10] | binds | binds |
| RAIGGGLSSVGGGSSTIK [KAMP-18C] | binds | binds |
